Measured values published in a protein production outcome set (Wang et al. 2014).

Assay: label from the status in PepcDB records
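Note: failed if final PepcDB status was selected cloned or expressed and not failed if soluble or beyond.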

Sequence: MRLTARSEPSSAPFPSGTGRQIGADCNGPSACQALQFTPFCPSRDNEMSDWSLDQARKTYSIPHWADGYFDVNDAGHVVVRPTADGPAVSLPEVVDAARAAGAKLPLLVRFPDILGQRLGKLQAAFAQAQADWDYAGGYTAVYPIKVNQHRGVAGTLASHHGEGFGLEAGSKPELMAVLALSRPGGLIVCNGYKDREYIRLALIGRKLGLQTFIVIEKPSELNLVLEEARALDVKPGLGVRMRLASLGAGKWQNSGGDKAKFGLSPRQVLDLWKSLRDTEYADSLNLLHFHMGSQISNVRDIANGMREATRYFVELSRLGAKISHVDVGGGLGIDYEGTRSRSYCSINYGLHSYASNIVQPLASACEEHGLPPPRIVTECGRAMTAHHAVLIANVSEVEQAPEGRVPDAHDDEPAAIRHLREIHDELDVRPAVELFQEAQHFHAEGLSAYALGQIDLTHRARIDDLFYAIAHGVRARLSFDEKSHRPVLDELNERLVDKYFVNFSVFESIPDVWAIDQVFPIVPIERLNEAPQRRGIIADMTCDSDGMVKTYVENESLDSSLPLHGLNPGESYRIGFFLVGAYQEILGDIHNLFGDTDAVEVAVDGTGYRIAQQRRGDTTDVMLDYVGYQLDTLRATYAERIAAAQLPPERAQELHDALEAGLTGYTYLSDEPLG
- protein production: failed

Sequence: MRLTDQKRESIVQAAIAEFGDRGFEITSMDRIAARAEVSKRTVYNHFPSKEELFAEMLQRLWNCAPPQSEVVYRPLVSLREQLLELLWGKMRNLTDSSFLDLARVVVGATIHSPERAQVWLARINEREETFSAWIRAAQKDGRLKPVDPGFAATQMHALLKSFAFWPQVTFNAALLTPQEQSNVVESALNMFLGWYEIPG
- protein production: not failed

Sequence: MRLTSKGRYAVTAMLDVALNSEAGPVPLADISERQGISLSYLEQLFSRLRKNGLVSSVRGPGGGYLLGKDASSIAVGEVISAVDESVDATRCQGKGGCQGGDKCLTHALWRDLSDRLTGFLNNITLGELVNNQEVLDVSGRQHTLEHHHHHH
- protein production: not failed

Sequence: MRLTVDQALAQAIAAHRSGQLQDAERLYRAILDAAPGHADANHNLGVLAVGVGKPQAGLSFLKAALEINPAQGQFWVSYIDALIAAGLPAAARDHLEQAKRRGLTGDAVERLEKRLDPASQPPQALLDSVVAQYRSGNLAAAESQAHALTLSFPNHELGWKVLGAVFSVTGRSEESLASMRQALSLNPQDAETFKNLAILLLKLKRAEEAEAACRSALALAPDYPQVHLTLGNALIDLARAAEAEESFRQAIRLKPDYSEAHCNLGCALKLSGRLTEAETCFRRAIQLNPADAQAHNNLGDVFKDLGRFADAEAFYRAAIGLKPEYLEAHSNLLLCLNYFETSSPDTYLAEAKQYGSVASAAATPKFSAWSIQPEPRRLRVGFISGDLNSHPVGYFSESVFQHLDRDRFELFAFPTTPKTDALTSRISPFFAGWCPIFGMDDHAAATAIHTQGVHVLVDLSGHTADNRLPVFAFRPAPVQASWLGYFATTGLPEMDYFLGDRYMVTETEQQRFTETLWRLPETWLCLAPHERSIPINPPPVLTNGFMTFGCLGNLSKMNGEVVALWSQILRAVPESKLLLKAKPFVDAQVVADIQARFAREGVSSDRLILEGPSSRAEYFETYNRIDLVLDTFPYPGGTTSVDALWMGVPVLTLAGDRFLARLGESIARNAGQSAWVARDRADYLAKAVAFASVRDVAHDRPALRRSVLTTPLFDPERFARDFGDTLWGMWSQGRSHPLRKDAPCRS
- protein production: failed

Sequence: MRLTVWTYEGPPQVGAMRVATAMRGVHYVVHAPQGDSYADLLFTMIERRPGRPAVSYTSFQARDLGTDTAALFKTAAADAVARFQPEALLVGSSCTGELIQDDPGGLAKALGLSIPVIPLELPSYQRKENWGAAETFYRLVRTMAGPAAPAPGTPRAPRPAGQRPRCNLLGPTALGFRHRDDVQAVVALLGRMGVDVAVVAPLGASPADLARLGEADFNVVLYPEIADTAVRWLERAFGQPSVRTVPIGVGATRAFIAEVAAVAGVDPAPALAEESLRLPWWSRSVDSTYLTGKRVFIFGDATHAVAAARVATEEFGFEVVGLGTYAREYARELRACAGALGLEALITDDYLDVEAAIADAHPDLVLGTQMERHIAKRLGVPCAVISAPVHVQDFPARTAPQMGFDGANVLFDTWVHPLMMGLEEHLLMMFRDDFEFHGDAAPSHLSAHRPTGEAVGDAVGEPPAAPRDQAAPAATLDGSAAQSDPARTTPPGAPSWEDSAEKELRKVPFFVRGKARRNTERFAAERGLASISVETLYDAKAHFGR
- protein production: failed

Sequence: MRMEDEDYNTSISYGDEYPDYLDSIVVLEDLSPLEARVTRIFLVVVYSIVCFLGILGNGLVIIIATFKMKKTVNMVWFLNLAVADFLFNVFLPIHITYAAMDYHWVFGTAMCKISNFLLIHNMFTSVFLLTIISSDRCISVLLPVWSQNHRSVRLAYMACMVIWVLAFFLSSPSLVFRDTANLHGKISCFNNFSLSTPGSSSWPTHSQMDPVGYSRHMVVTVTRFLCGFLVPVLIITACYLTIVCKLQRNRLAKTKKPFKIIVTIIITFFLCWCPYHTLNLLELHHTAMPGSVFSLGLPLATALAIANSCMNPILYVFMGQDFKKFKVALFSRLVNALSEDTGHSSYPSHRSFTKMSSMNERTSMNERETGML
- protein production: failed

Sequence: MRMNILLAFKAEPDAGMLAEKEWQAAQGNSGPDVSLLRSLLGADEQAAAALLLAQRKNGTSMSLTALSMGDERALHWLRYLMALGFEDAVLLETAADLRFAPEFVARHIAEWQYQNPLELIITGCQSSEGQNGQTPFLLAEMLGWPCFTQVERFTLDAPFITLEQRTENGLRCCRVRLPAVIAVRQCGEVALPVPGMRQRMAAGKAEIIRKTVAAEMPAMQCLQLARAEQRRGATLIDGQTVAEKAQKLWQYYLCQRMQP
- protein production: failed

Sequence: MRNGILYAILLYVFMFVLWFCFAYFIDTSTTIFNIPLWFFLSGILFPSIIFFWFVFLF
- protein production: failed

Sequence: MRNKQSLVFLASSLFLLILAPITSEAISNPSTNINEVNREIVEESANDQATSAPSHSETLEQEPSLETTTTTDNHPAETDQSTATLEPSEQQKDDGTSATESVIVEPQPRMLAAPYATSLPDDPNIIPIDKVFQEPIGNATSILEGGKLLQLNPAVKSQKGAIWSKKPISLLSDFTFKSYLYLGNEYANAGDGMTFTLTNDPRMSTTPQEVIGSPGMGIGAYSTKAGQPYVRNALSIEFDTYKNTGSSNRMDREISQDKGNGHLAFVTPKANNNNYTGEHSGVTVAPTYLSNGTWRMLTVHWNAATKALTYDLEGVGTNTYVVSDLNAQFGATTVYWGFTSSTGGKYQENALAMTQIPTNVTSQAALSVNGQEFSSAVEAVKNDQVRLRNTLNIDNDFIEDRQPQVSIDLPDELAYEENSLTIDGKKVAAKDLTQTGNHLTIALNDYLVLKKDMMIELKTTLQDNTPEKVLTMNFDYYEEGTLLQKSNNVTITIPKPTEKTVTVFYKDAEGKDIAPPKSVTGKIGAPYQEKPLDISGYVFTKDSGNAEGTMTEETKDIYFYYRLGELYFKEAPKQITFGTEKIRNQPLIKLGHPTEGLKVVDERNANNWRLQLKQTQPLTNDSIVMPDVFSFVSTAGSSQITNEAITLLESNQKGETDLTALLDESKQQGIQINVPVAYQRVGTFKARLSWALEDVPGN
- protein production: failed

Sequence: MRNVLITGATSGIGLSLVEKYLQAGDKVYACGRNFQAYLKSSSLIDAEKSDKLVKIVFDMNHHDAIIDVLTEVESLDIAILNAGTCEYIDDAMGFDAELFERVINTNVISIGYCLQALLPKMKQKGHLALMGSSAAFVPFQRAEAYGASKAAIHYLAQSLQLDIPKERLTISVIAPGFVKTPLTDKNDFPMPMLIEPDKAADHIINGINNNKQHIHFPFPFTRFLILMGALPSCIWQWMALRMKRK
- protein production: failed

Sequence: MRPIKLLPDGLISQIAAGEVIERPASVLKELLENAIDAGTTDISVNIAQGGLKLIRVTDNGGGISGEELPLALTRHATSKIASQEDLYRITSLGFRGEGLASIASVSNLLLISHQPGGKHAWQIRSEGIRVMQPEPSSHAAGTTVEVRDLFFNLPARRKFLKTEATEFAHCEEIIRRMALSHAGIAFTLRHNGNLRGHWQSAEAAVRIKTVLGEEFTRSAAWIDERSAGIGLQGMLALPAYSRAARDMQYFFVNGRFVRDKLITHALREAYRDVLHLDRHAAFVLYLDIDPEQVDVNVHPTKTEIRFREARAIHQFIYHGVSKALSLPRSGTELSQSSSQLMADDIVPPAEKRVPAAPMLNYPRQTGLPSEMIAQPFNFYQVLSGSESDSTATQNPFRQTGAGESNEHPALPPLGFALGQLHGVYILAQNWKGLVIVDMHAAHERIVYEQLKLQMDEQTLSAQRLLIPVTFHADSLDIATAEENQSLLQQLGFEVTVLTATTLAVRAVPAILQDADTEKLVCNVLDEIRNGDPGQLLAARRNELLATMACHGAVRANRPLTLIEMNELLRKMEVTERSDQCNHGRPTWFEISLAELDKMFMRGK
- protein production: failed

Sequence: MRPMASELTTFVLIFGTLLFVFGLFSRKIEGTVVTIQMIFLAAGILLSPIGLNLISLSPRSGLVLGVIKVALVLTFFSDASLIGLHSLFLKERLSVRLLFLGLSLTICLGTVFAALLFADITFIDAILLGIILAPTDASLAQKVVEERQVPTLIRNGLIIESGLNDGAVMPLFIFVVALEAVEKLNRPLGTFLAIALEQIGFGIFVGIIIGLVGGWLFSRAFKAGSMSEVYYRTEFVALALISWLVADGVGGNGFIAAFIAGLATRIEDRQVTEEEVILLPRAEGNVLNLAVLFILGVMSAEYLPLVDLKIFAYAVLSLTVVRMVPVTISLIGSHLNIKTGLFMGWFGPRGLASIVLMLITVERIEGIRVSGTIGLAVITTVIISVFAHGITAGPVSNWYARIIATLPPDAPEKESVEELTALQGIETTENIHKEPY
- protein production: failed

Sequence: MRPRPDAALAMSSGPPAARKPGVVQPALLNMSAWLRPEPGLTVVTPLVRALVLISAFSPQERWLGNGQLAQRTGLPPSTVSRIAQSLVHLGYLLHDGAERKYRLAPAVLGLGYAAIAHSAIQGLAGERMAAFARQHKVHVCLAARDRLDLVVLECRRSLECPVALPLHVGMRVGIAQSPMGWSMLAALPELERCYLLDNVERRMARDWSRLRRRVWEGMAQVGETGYCTSIGEWNPELGALATPVLLEGSSPFVLACIGTSQTMTRARVARELGPRLLAMREALQTEFNVIGH
- protein production: failed

Sequence: MRPTPYLAPIPVRGRISRPQPKGLPVINMGYNELPYPPLPAIRAAMEETAERAQSYGSPHCDALRDALGAAHGLDPEQIVCGNGSEELLDVIARCFARPGDEILISEFGYIQFALTANRVGATLVKARERDNTSDVDALLAAVSEHTRLLFLANPNNPTGTMLEIDELSRLARDLPAQVVLVLDLAYGEFAAPDYCAAVHSLAANHENIVVTRTFSKAYGLAGARVGWCHAPAWMVPVLYAARGMGTVNALAQAGAVAGLADPAAIQERVDEIVSERARLTGALGQLGLVVTPSRTNFLMARFREGDAARTEALVEHLFEDAGIVVNRTREAGLEAFFRFSLSLPAHNDLLLDSIRRFIGQG
- protein production: failed

Sequence: MRQSCLMTEQLQDIKTLIEQGDTERAIHALTNFIRNDAHVNDEPYYLLGNAYRKMGDWQQALNNYLEAIERNPESPAVSARNMIMNILNFYNKDMYNQ
- protein production: failed

Sequence: MRQYMRTFLLVAVIFVFGFSIRMLNAGYDDPLYTDDDGLQYFQESDSYYNYRLTENLAIRGIPGDAVIGGKIWDLHSYYPPGVPLDYPAGILLLAVILHAITGVIAPVSLRAVCLIMPPLLAPLAGVICFFTVKRFQGDIPAFIAGLLLVSAPFYLVKTVYGLYDTDMLILTLSMAVLFLFIEADAREVNRVPLSAIGGFILFLFSITWSGWQVMFYVTLVTFIILILTSGSRKPLRNILGNIPTGLHGSVYPFNLFNHLELIKLIMTPLHIHDLVDKSIWYPWPDSYTTVAELQPAYMDKVLGHISPALTVLGAAGIPAYYMLYRRKGSVGLPVIFISVWIATGALMLLEGIRFVMILIAPLSVSAGIFTGILLDCSRKFRFRWIKGVLFILIIFTVSAQLAISGNMVADLKPGYNDYFEESAHWIAENTPSDAVIITEWSYGHFYASEADRPVVYDGRLAYIETLPARGVWYGSSMDPEIPTTARDYWINLSLSSENRTLSLNILRMLANSGDDAYILLKNQTGSEVQAYRIMNEILGLNRESAMDVLMHRYGFSESEALRILNMTHPMTSRKIVVVVPEKMIGLIASKGDSGDMPAGTYSLIRLKDDVIEEEIINSSGNVTVLETTDGSYRINRKYRKSLLLELIMGVNDENFSLVYRNKQIKVYIINS
- protein production: failed
